{"source": "IntAct's records for PubMed 18480252", "parents": {"B1": {"name": "[PIN+] prion protein RNQ1 (Saccharomyces cerevisiae), P25367 (parent)", "chain": "MDTDKLISEAESHFSQGNHAEAVAKLTSAAQSNPNDEQMSTIESLIQKIAGYVMDNRSGGSDASQDRAAGGGSSFMNTLMADSKGSSQTQLGKLALLATVMTHSSNKGSSNRGFDVGTVMSMLSGSGGGSQSMGASGLAALASQFFKSGNNSQGQGQGQGQGQGQGQGQGQGSFTALASLASSFMNSNNNNQQGQNQSSGGSSFGALASMASSFMHSNNNQNSNNSQQGYNQSYQNGNQNSQGYNNQQYQGGNGGYQQQQGQSGGAFSSLASMAQSYLGGGQTQSNQQQYNQQGQNNQQQYQQQGQNYQHQQQGQQQQQGHSSSFSALASMASSYLGNNSNSNSSYGGQQQANEYGRPQQNGQQQSNEYGRPQYGGNQNSNGQHESFNFSGNFSQQNNNGNQNRY", "partner": "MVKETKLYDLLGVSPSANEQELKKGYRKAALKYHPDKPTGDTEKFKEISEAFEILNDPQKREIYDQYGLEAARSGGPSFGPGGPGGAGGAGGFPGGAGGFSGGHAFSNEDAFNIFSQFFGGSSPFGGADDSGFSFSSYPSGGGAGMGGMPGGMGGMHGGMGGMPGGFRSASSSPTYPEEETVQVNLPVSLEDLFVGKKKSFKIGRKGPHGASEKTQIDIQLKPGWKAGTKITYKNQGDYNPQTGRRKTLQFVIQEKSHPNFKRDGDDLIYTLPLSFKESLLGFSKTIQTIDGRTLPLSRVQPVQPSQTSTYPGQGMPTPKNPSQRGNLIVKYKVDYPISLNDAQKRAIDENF"}}}
{"variants_of": "B1", "details": "with sis1_yeast SIS1, P25294"}
{"variant": "L94A", "effect of a mutation on the interaction": "decreasing interaction"}
